From CN114591431A

Biological target: 重组人GAS6 his 蛋白(Novoprotein，Cat#C01W) (human) (UniProt Q14393)
Assay: ELISA, coated human GAS6 his 0.5 ug/ml, positive control

UniProt Q14393, sequence (Q14393 31-678 limits assumed, stated change not applied): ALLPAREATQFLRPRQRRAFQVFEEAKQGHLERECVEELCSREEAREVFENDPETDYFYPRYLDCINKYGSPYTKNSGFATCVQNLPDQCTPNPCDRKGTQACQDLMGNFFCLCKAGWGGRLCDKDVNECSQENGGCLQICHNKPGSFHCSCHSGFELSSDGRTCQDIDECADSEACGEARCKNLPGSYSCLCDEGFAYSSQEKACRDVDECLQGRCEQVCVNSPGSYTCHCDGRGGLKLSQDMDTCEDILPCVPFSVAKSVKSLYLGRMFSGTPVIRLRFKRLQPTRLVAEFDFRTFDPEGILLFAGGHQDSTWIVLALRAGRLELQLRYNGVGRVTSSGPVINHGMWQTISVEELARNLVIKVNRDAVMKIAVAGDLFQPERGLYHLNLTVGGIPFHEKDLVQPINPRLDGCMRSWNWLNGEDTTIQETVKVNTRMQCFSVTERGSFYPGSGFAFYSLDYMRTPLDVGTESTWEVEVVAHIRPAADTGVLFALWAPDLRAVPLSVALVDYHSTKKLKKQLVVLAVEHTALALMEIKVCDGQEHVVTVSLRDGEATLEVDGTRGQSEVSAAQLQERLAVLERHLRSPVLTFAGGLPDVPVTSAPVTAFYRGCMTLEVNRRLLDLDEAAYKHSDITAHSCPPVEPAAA

EC50: 0.43 nM
Substance: anti-huGas6 antibody (Santa cruz, sc-376087)
